Data on four molecules can be found in patent US5625031, “Peptide inhibitors of the p33^cdk2 and p34^cdc2 cell cycle regulatory kinases and human papillomavirus E7 oncoprotein” (Bristol-Myers Squibb Company, dated 1997).

The target in the first assay is T1, p34^cdc2 cell cycle regulatory kinase (Homo sapiens (Human), UniProt P06493). In words: IC50 column of Table 1 (ELISA based competition on p107 30mer-coated plate). For orientation: ELISA stands for enzyme-linked immunosorbent assay.
On to LCAAYIMAK [p107 9mer peptide 715FA], for which the binding result is on record as “no binding (tested: >100 µM)”.
As to YIMAK [p107 N5mer peptide], the binding result was “no binding (tested: >100 µM)”.
Take LCAKYIMAK [p107 9mer peptide 715FK]: the binding result is “no binding (tested: >100 µM)”.
With LCAFYKMAK [p107 9mer peptide 717IK], the binding result is on record as “no binding (tested: >100 µM)”.

A further assay has as its target T1, p34^cdc2 cell cycle regulatory kinase. In words: IC50 column of Table 1 (ELISA based competition, competitor plate-bound p107 30mer).
Molecule LCAAYIMAK [p107 9mer peptide 715FA] displayed an IC50 greater than 100 µM.
Take YIMAK [p107 N5mer peptide]: the IC50 was greater than 100 µM.
On the same count and under the same terms, with LCAKYIMAK [p107 9mer peptide 715FK] the figure was greater than 100 µM; with LCAFYKMAK [p107 9mer peptide 717IK], greater than 100 µM.

As usually defined, the IC50 is the concentration needed to halve the response being measured.
